Molecular target: the molecule itself
Assay: solution-state diffusion-ordered NMR spectroscopy

B1: isolated cytoplasmic (soluble) C-terminal domain of CzcD (CzcD_(209-316)) (domain or fragment, Cupriavidus metallidurans CH34, UniProt P13512 209-316, looked up)
chain: EGVPDDVDLAEVEKQILATPGVKSFHDLHIWALTSGKASLTVHVVNDTAVNPEMEVLPELKQMLADKFDITHVTIQFELAPCEQADAAQHFNASPALVGSKSLAAGGN
stoichiometry N: 2

Source: paper PMC5321536 (Angewandte Chemie (International ed. in English), 2017)
